A short description of this series: melting temperature; melt of duplexes. Conditions: sodium 0.0675 M; strand 1 µM.
A word on the Tm: it is the temperature at the midpoint of the melting transition. Consider “CGACGTGCCTTATGTGCTG+CAGCACATCAAGCACGTCG ((((((((.(.((((((((+)))))))).).))))))))”, for which the Tm came to 48.8 °C.

Regarding “CGACGTGCACCATGTGCTG+CAGCACATACTGCACGTCG (((((((((..((((((((+))))))))..)))))))))”, the Tm was found to be 44.9 °C.

Take “CGACGTGCTGGATGTGCTG+CAGCACATGATGCACGTCG ((((((((...((((((((+))))))))...))))))))”: the Tm came out at 51.7 °C.

For the substance “CGACGTGCCAAATGTGCTG+CAGCACATTCTGCACGTCG ((((((((..(((((((((+)))))))))..))))))))”, the Tm was found to be 51.5 °C.

Take “CGACGTGCTTTATGTGCTG+CAGCACATGCCGCACGTCG ((((((((...((((((((+))))))))...))))))))”: the Tm turned out to be 46.7 °C.

On to “CGACGTGCAAAATGTGCTG+CAGCACATATGGCACGTCG ((((((((.(.((((((((+)))))))).).))))))))”, for which the Tm was determined as 50.3 °C.

With “CGACGTGCGCTATGTGCTG+CAGCACATGGCGCACGTCG ((((((((((.((((((((+)))))))).))))))))))”, the Tm is 63.2 °C.

For “CGACGTGCGCCATGTGCTG+CAGCACATACAGCACGTCG ((((((((...((((((((+))))))))...))))))))”, the Tm was found to be 51.3 °C.

As for “CGACGTGCTTCATGTGCTG+CAGCACATATCGCACGTCG ((((((((...((((((((+))))))))...))))))))”, the melting temperature (Tm) stood at 47.5 °C.

As for “CGACGTGCTAGATGTGCTG+CAGCACATTGCGCACGTCG ((((((((...((((((((+))))))))...))))))))”, the Tm turned out to be 49.2 °C.

Take “CGACGTGCTCTATGTGCTG+CAGCACATTTAGCACGTCG (((((((((..((((((((+))))))))..)))))))))”: the Tm was 51 °C.

With “CGACGTGCCTTATGTGCTG+CAGCACATATGGCACGTCG (((((((((.(((((((((+))))))))).)))))))))”, the Tm is 57.9 °C.

Regarding “CGACGTGCTCGATGTGCTG+CAGCACATAGAGCACGTCG ((((((((((.((((((((+)))))))).))))))))))”, the melting temperature (Tm) is 59.5 °C.

As for “CGACGTGCGATATGTGCTG+CAGCACATGTCGCACGTCG ((((((((((.((((((((+)))))))).))))))))))”, the Tm was determined as 61 °C.

In the case of “CGACGTGCAAGATGTGCTG+CAGCACATAACGCACGTCG ((((((((...((((((((+))))))))...))))))))”, the Tm was 48.6 °C.

Consider “CGACGTGCGAAATGTGCTG+CAGCACATATCGCACGTCG ((((((((((.((((((((+)))))))).))))))))))”, for which the Tm was found to be 57.4 °C.

Consider “CGACGTGCACTATGTGCTG+CAGCACATTTCGCACGTCG ((((((((...((((((((+))))))))...))))))))”, for which the Tm was found to be 43.1 °C.

On to “CGACGTGCTTAATGTGCTG+CAGCACATGAGGCACGTCG ((((((((.(.((((((((+)))))))).).))))))))”, for which the Tm came out at 52.7 °C.

For “CGACGTGCTGTATGTGCTG+CAGCACATTTGGCACGTCG ((((((((...((((((((+))))))))...))))))))”, the Tm is 50.4 °C.

On to “CGACGTGCTACATGTGCTG+CAGCACATTCGGCACGTCG ((((((((...((((((((+))))))))...))))))))”, for which the melting temperature (Tm) amounted to 49.1 °C.

Regarding “CGACGTGCCAAATGTGCTG+CAGCACATCATGCACGTCG ((((((((...((((((((+))))))))...))))))))”, the Tm is 48.3 °C.

Consider “CGACGTGCTTAATGTGCTG+CAGCACATCGGGCACGTCG ((((((((...((((((((+))))))))...))))))))”, for which the Tm is 49.1 °C.

For “CGACGTGCCGAATGTGCTG+CAGCACATACTGCACGTCG ((((((((.(.((((((((+)))))))).).))))))))”, the Tm amounted to 50.2 °C.

“CGACGTGCAGAATGTGCTG+CAGCACATTAAGCACGTCG ((((((((..(((((((((+)))))))))..))))))))”: the melting temperature (Tm) amounted to 53.3 °C.

On to “CGACGTGCTTAATGTGCTG+CAGCACATGATGCACGTCG ((((((((.(.((((((((+)))))))).).))))))))”, for which the Tm was found to be 53 °C.

Turning to “CGACGTGCAGAATGTGCTG+CAGCACATCATGCACGTCG (((((((((..((((((((+))))))))..)))))))))”, the Tm came to 53 °C.

“CGACGTGCACGATGTGCTG+CAGCACATCGGGCACGTCG ((((((((.((((((((((+)))))))))).))))))))”: the Tm worked out at 63.8 °C.

As for “CGACGTGCTATATGTGCTG+CAGCACATTCTGCACGTCG ((((((((...((((((((+))))))))...))))))))”, the Tm was determined as 49 °C.

As for “CGACGTGCTGCATGTGCTG+CAGCACATTCGGCACGTCG ((((((((.(.((((((((+)))))))).).))))))))”, the Tm is 53.2 °C.

Consider “CGACGTGCCACATGTGCTG+CAGCACATGGCGCACGTCG ((((((((..(((((((((+)))))))))..))))))))”, for which the Tm stood at 54 °C.

Take “CGACGTGCTCCATGTGCTG+CAGCACATTCTGCACGTCG ((((((((...((((((((+))))))))...))))))))”: the Tm is 47.2 °C.

In the case of “CGACGTGCGTGATGTGCTG+CAGCACATACGGCACGTCG ((((((((...((((((((+))))))))...))))))))”, the Tm stood at 51.1 °C.

In the case of “CGACGTGCTTAATGTGCTG+CAGCACATCGCGCACGTCG ((((((((...((((((((+))))))))...))))))))”, the Tm worked out at 46.7 °C.

For the substance “CGACGTGCGTCATGTGCTG+CAGCACATTCGGCACGTCG ((((((((...((((((((+))))))))...))))))))”, the Tm worked out at 48.7 °C.

Take “CGACGTGCCTAATGTGCTG+CAGCACATCTAGCACGTCG ((((((((...((((((((+))))))))...))))))))”: the Tm was 48.8 °C.

Regarding “CGACGTGCAAGATGTGCTG+CAGCACATAGTGCACGTCG (((((((((..((((((((+))))))))..)))))))))”, the melting temperature (Tm) came out at 48.6 °C.

With “CGACGTGCGCGATGTGCTG+CAGCACATCGGGCACGTCG ((((((((.((((((((((+)))))))))).))))))))”, the Tm is 63.6 °C.

As for “CGACGTGCATGATGTGCTG+CAGCACATGTAGCACGTCG ((((((((...((((((((+))))))))...))))))))”, the Tm stood at 49.9 °C.

Take “CGACGTGCTGGATGTGCTG+CAGCACATCGAGCACGTCG (((((((((.(((((((((+))))))))).)))))))))”: the Tm was found to be 59.3 °C.

As for “CGACGTGCGTGATGTGCTG+CAGCACATTTGGCACGTCG ((((((((...((((((((+))))))))...))))))))”, the Tm came out at 50.4 °C.

In the case of “CGACGTGCGGAATGTGCTG+CAGCACATCTGGCACGTCG ((((((((...((((((((+))))))))...))))))))”, the Tm was found to be 52.3 °C.

As to “CGACGTGCCATATGTGCTG+CAGCACATGGAGCACGTCG ((((((((...((((((((+))))))))...))))))))”, the Tm came out at 51.5 °C.

“CGACGTGCTTCATGTGCTG+CAGCACATAAGGCACGTCG ((((((((.(.((((((((+)))))))).).))))))))”: the Tm came to 50.6 °C.

In the case of “CGACGTGCGTAATGTGCTG+CAGCACATGACGCACGTCG ((((((((((.((((((((+)))))))).))))))))))”, the Tm worked out at 58 °C.

Take “CGACGTGCGAAATGTGCTG+CAGCACATACGGCACGTCG ((((((((...((((((((+))))))))...))))))))”: the Tm worked out at 49 °C.

On to “CGACGTGCTATATGTGCTG+CAGCACATCTCGCACGTCG ((((((((.(.((((((((+)))))))).).))))))))”, for which the Tm was 48.3 °C.

In the case of “CGACGTGCAGGATGTGCTG+CAGCACATTCAGCACGTCG ((((((((.(.((((((((+)))))))).).))))))))”, the Tm was 54.1 °C.

“CGACGTGCGACATGTGCTG+CAGCACATCAGGCACGTCG ((((((((...((((((((+))))))))...))))))))”: the Tm was determined as 49 °C.

In the case of “CGACGTGCCACATGTGCTG+CAGCACATAGAGCACGTCG ((((((((...((((((((+))))))))...))))))))”, the Tm was 49.4 °C.

Regarding “CGACGTGCTCCATGTGCTG+CAGCACATACTGCACGTCG ((((((((...((((((((+))))))))...))))))))”, the Tm was determined as 47.4 °C.

For “CGACGTGCATAATGTGCTG+CAGCACATGCAGCACGTCG ((((((((...((((((((+))))))))...))))))))”, the Tm came out at 51.4 °C.

On to “CGACGTGCACGATGTGCTG+CAGCACATATAGCACGTCG ((((((((...((((((((+))))))))...))))))))”, for which the midpoint of thermal melting (Tm) is 45.6 °C.

For the substance “CGACGTGCCACATGTGCTG+CAGCACATTTTGCACGTCG ((((((((.(.((((((((+)))))))).).))))))))”, the melting temperature (Tm) was 48 °C.

“CGACGTGCTCGATGTGCTG+CAGCACATGTAGCACGTCG (((((((((..((((((((+))))))))..)))))))))”: the Tm was determined as 52.3 °C.

In the case of “CGACGTGCCTGATGTGCTG+CAGCACATATAGCACGTCG ((((((((...((((((((+))))))))...))))))))”, the Tm worked out at 49.8 °C.

Consider “CGACGTGCACTATGTGCTG+CAGCACATACAGCACGTCG ((((((((..(((((((((+)))))))))..))))))))”, for which the Tm was 45.4 °C.

In the case of “CGACGTGCACTATGTGCTG+CAGCACATGCAGCACGTCG ((((((((...((((((((+))))))))...))))))))”, the Tm stood at 45.3 °C.

Regarding “CGACGTGCGGGATGTGCTG+CAGCACATATGGCACGTCG ((((((((...((((((((+))))))))...))))))))”, the Tm was determined as 50.8 °C.

Consider “CGACGTGCTCAATGTGCTG+CAGCACATGCGGCACGTCG ((((((((...((((((((+))))))))...))))))))”, for which the Tm was 49.4 °C.

As for “CGACGTGCGGGATGTGCTG+CAGCACATAAGGCACGTCG ((((((((...((((((((+))))))))...))))))))”, the Tm was determined as 51.1 °C.

As for “CGACGTGCTGAATGTGCTG+CAGCACATGCGGCACGTCG ((((((((.(.((((((((+)))))))).).))))))))”, the Tm came to 55.3 °C.

For “CGACGTGCTAGATGTGCTG+CAGCACATCAGGCACGTCG ((((((((..(((((((((+)))))))))..))))))))”, the Tm worked out at 56.2 °C.

As for “CGACGTGCTAAATGTGCTG+CAGCACATCCAGCACGTCG (((((((((..((((((((+))))))))..)))))))))”, the melting temperature (Tm) was 50.8 °C.

“CGACGTGCCTTATGTGCTG+CAGCACATTCGGCACGTCG (((((((((..((((((((+))))))))..)))))))))”: the Tm is 53 °C.

Consider “CGACGTGCGCAATGTGCTG+CAGCACATAAGGCACGTCG ((((((((...((((((((+))))))))...))))))))”, for which the Tm worked out at 50.9 °C.

On to “CGACGTGCTTGATGTGCTG+CAGCACATCTAGCACGTCG (((((((((.(((((((((+))))))))).)))))))))”, for which the Tm came out at 58.6 °C.

(Values after the array DNA melting data of Ke et al..)
